± gives the uncertainty stated by the source.
Assay: protein stability index of a GFP-peptide fusion (yeast GPS) (PSI 1-4); higher = more stable; sorted into four equal gates, so the index is relative within each strain
Method in brief: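 For each peptide, the protein stability index sums the read frequency in every gate after multiplying it by the gate number. Read frequencies came from plasmids that were PCR-amplified from each gate and Illumina-sequenced, with reads assigned to strains by barcodes. The gates were four equal bins of GFP/Cherry fluorescence ratio applied to mid-log yeast in leucine-free medium carrying a pooled library of tiled 17-residue yeast protein peptides fused downstream of GFP on a Cherry-expressing plasmid.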

Row | Sequence | protein stability index (doa10∆) | protein stability index (pdr5∆) | protein stability index (san1∆) | protein stability index (ubr1∆)
1 | SKEFSAYVSGLFEIYRD [YJR042W/NUP85] | 1.76 ± 0.093 | 2.75 ± 0.15 | 2.7 ± 0.19 | 2.31 ± 0.08
2 | EKDCSLRAIEKNDDNSC [YIL149C/MLP2] | 2.32 ± 0.1 | 2.67 ± 0.077 | 3.06 ± 0.082 | 1.86 ± 0.11
3 | EVNKSELYLTAELSEIW [SIR3] | – | 2.86 ± 0.29 | – | 3.24 ± 0.21
4 | QLFHSMSIVFGDKFSED [UBP6] | 1.62 ± 0.056 | 1.34 ± 0.06 | 1.14 ± 0.094 | 1.38 ± 0.041
5 | ESINNVVDQLWSEISNE [RPN2] | 2.77 ± 0.065 | 2.94 ± 0.053 | 2.83 ± 0.096 | 2.63 ± 0.041
6 | EQQLFEIFAFGNIKDLP [CSN9] | 2.88 ± 0.076 | 2.97 ± 0.06 | 2.96 ± 0.035 | 2.86 ± 0.035
7 | TETEVEREQPQENKNID [SRB4] | 3.42 ± 0.1 | 3.41 ± 0.091 | 3.07 ± 0.068 | 3.62 ± 0.089
8 | LLSDVNQNQRNVNETMS [SMC3] | 3.06 ± 0.12 | 2.89 ± 0.054 | 3.04 ± 0.062 | 3.01 ± 0.082
9 | IEKARVEAQSHRLTLED [PRE6] | – | – | – | 3.26 ± 0.15
10 | RMRFPPFDDDEPPLSYE [PRP8] | 2.63 ± 0.047 | 3.06 ± 0.051 | 2.95 ± 0.035 | 2.61 ± 0.034
11 | STVSGELNDNPAWFNNP [YMR153W/NUP53] | 3.36 ± 0.086 | 3.47 ± 0.056 | 3.29 ± 0.044 | 3.35 ± 0.049
12 | VEGHLFEIIDEASKKSA [FAS1] | 3.26 ± 0.17 | 3.5 ± 0.15 | 3.22 ± 0.06 | 3.33 ± 0.073
13 | SLTKDKSIRKDTVEEKK [SIR4] | 3.03 ± 0.064 | 3.23 ± 0.062 | 3.1 ± 0.056 | 3.12 ± 0.069
14 | AVKYGLNHVVSLIENKK [RPL8B] | 2.25 ± 0.079 | 2.37 ± 0.077 | 2.26 ± 0.089 | 2.01 ± 0.047
15 | GNVFSPIDNNIIFASTK [SNU114] | 3.16 ± 0.062 | 2.97 ± 0.092 | 2.97 ± 0.052 | 2.95 ± 0.046
16 | TQARVITGNKIMRILKS [RPS13] | 1.41 ± 0.17 | 1.24 ± 0.081 | 1.18 ± 0.12 | 1.1 ± 0.079
17 | TAVVNNAAPANVTGGKA [SWI1] | 2.64 ± 0.038 | 1.98 ± 0.04 | 2.37 ± 0.093 | 2.66 ± 0.037
18 | FHKYRLKRNSWPKTRGV [RPL2A] | 2.44 ± 0.099 | 2.71 ± 0.1 | 2.83 ± 0.12 | 2.31 ± 0.091
19 | TYQLCVRLRSNVIKTGI [RPN3] | 3.25 ± 0.14 | 3.35 ± 0.14 | 3.27 ± 0.084 | –
20 | VCMHCGKLLLDEHNELM [RPO21] | – | 2.94 ± 0.18 | 2.77 ± 0.28 | 3.14 ± 0.084
